How the values were obtained:
SMAD2 protein [1] = molecular target: T1, SMAD2 protein (mouse, UniProt Q62432 2-467); test: co-immunoprecipitation with anti-SMAD2 antibody from TGFβ1-stimulated mouse WT primary cardiac fibroblasts, western blot (FIG. 16D)
T1 construct: Endogenous protein in cell lysates

SMAD2 protein [2] = molecular target: T1, SMAD2 protein; test: co-immunoprecipitation with anti-FLAG antibody from NIH-3T3 lysates, western blot (FIG. 16C)

T1 sequence (Q62432 2-467 limits assumed): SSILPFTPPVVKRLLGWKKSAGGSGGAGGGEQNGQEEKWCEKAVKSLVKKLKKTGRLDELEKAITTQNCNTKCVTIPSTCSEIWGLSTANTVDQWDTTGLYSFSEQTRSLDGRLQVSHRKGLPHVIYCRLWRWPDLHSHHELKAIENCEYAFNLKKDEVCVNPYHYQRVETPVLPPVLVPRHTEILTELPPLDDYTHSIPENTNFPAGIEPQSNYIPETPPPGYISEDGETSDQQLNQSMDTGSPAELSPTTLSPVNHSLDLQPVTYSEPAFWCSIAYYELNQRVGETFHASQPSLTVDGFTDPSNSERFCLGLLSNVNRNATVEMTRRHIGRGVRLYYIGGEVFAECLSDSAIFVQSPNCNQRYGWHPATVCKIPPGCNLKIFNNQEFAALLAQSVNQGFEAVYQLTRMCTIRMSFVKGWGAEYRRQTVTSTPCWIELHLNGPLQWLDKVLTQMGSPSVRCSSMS

Binder | binding result (SMAD2 protein [1]) | binding result (SMAD2 protein [2])
WWP2-C, endogenous in mouse WT primary cardiac fibroblasts (enzyme, UniProt Q9DBH0 440-870, looked up) MIQEPALPPGWEMKYTSEGVRYFVDHNTRTTTFKDPRPGFESGTKQGSPGAYDRSFRWKYHQFRFLCHSNALPSHVKISVSRQTLFEDSFQQIMNMKPYDLRRRLYIIMRGEEGLDYGGIAREWFFLLSHEVLNPMYCLFEYAGKNNYCLQINPASSINPDHLTYFRFIGRFIAMALYHGKFIDTGFTLPFYKRMLNKRPTLKDLESIDPEFYNSIVWIKENNLEECGLELFFIQDMEILGKVTTHELKEGGENIRVTEENKEEYIMLLTDWRFTRGVEEQTKAFLDGFNEVAPLEWLRYFDEKELELMLCGMQEIDMSDWQKNAIYRHYTKSSKQIQWFWQVVKEMDNEKRIRLLQFVTGTCRLPVGGFAELIGSNGPQKFCIDRVGKETWLPRSHTCFNRLDLPPYKSYEQLKEKLLYAIEETEGFGQE | no binding | 
FLAG-tagged WWP2-C (enzyme, Expressed from a plasmid in NIH-3T3 mouse fibroblasts; The position of the FLAG tag is unknown; also called WWP2-Flag isoforms; C-terminal isoform; not shown: FLAG tag) MIQEPALPPGWEMKYTSEGVRYFVDHNTRTTTFKDPRPGFESGTKQGSPGAYDRSFRWKYHQFRFLCHSNALPSHVKISVSRQTLFEDSFQQIMNMKPYDLRRRLYIIMRGEEGLDYGGIAREWFFLLSHEVLNPMYCLFEYAGKNNYCLQINPASSINPDHLTYFRFIGRFIAMALYHGKFIDTGFTLPFYKRMLNKRPTLKDLESIDPEFYNSIVWIKENNLEECGLELYFIQDMEILGKVTTHELKEGGESIRVTEENKEEYIMLLTDWRFTRGVEEQTKAFLDGFNEVAPLEWLRYFDEKELELMLCGMQEIDMSDWQKSTIYRHYTKNSKQIQWFWQVVKEMDNEKRIRLLQFVTGTCRLPVGGFAELIGSNGPQKFCIDKVGKETWLPRSHTCFNRLDLPPYKSYEQLREKLLYAIEETEGFGQE |  | no binding

— US20260201389A1 (NATIONAL UNIVERSITY OF SINGAPORE, published 2026)
